Residue numbers refer to the chain shown, from its start. Where two headings read alike, the source gives them in different places.
Key:
Assay in all cases: live cell staining, flow cytometry
rTF (rat TF) [1] = target: T1, rTF (rat TF) (rat, UniProt P42533 29-252)
T1 construct: Expressed on the surface of transfected HEK293 cells

h1-107_r = target: T2, h1-107_r (human/rat chimera)
T2 construct: on HEK293 cells
T2 chain: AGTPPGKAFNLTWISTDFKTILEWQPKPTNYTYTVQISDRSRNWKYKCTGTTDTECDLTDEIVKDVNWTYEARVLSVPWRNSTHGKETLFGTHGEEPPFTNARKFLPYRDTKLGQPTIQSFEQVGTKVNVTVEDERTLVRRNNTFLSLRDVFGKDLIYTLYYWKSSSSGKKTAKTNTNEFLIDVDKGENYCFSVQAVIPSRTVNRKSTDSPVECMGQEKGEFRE

h1-77_r = target: T3, h1-77_r (human/rat chimera)
T3 construct: Human TF with ECD residues 1-77 replaced by the rat segment; on HEK293 cells

h159-219_r = target: T4, h159-219_r (human/rat chimera)
T4 construct: on HEK293 cells

hTF = target: T5, hTF (human, UniProt P13726 33-251)
T5 construct: also called human TF; human Tissue Factor

rTF (rat TF) [2] = target: T1, rTF (rat TF); remark: listed apart in the source
r141-194_h = target: T6, r141-194_h (rat/human chimera, UniProt P42533 29-252)
T6 construct: on HEK293 cells

hTF_K149N = target: T7, hTF_K149N (human, UniProt P13726 33-251)
T7 construct: on HEK293 cells; not shown: transmembrane and cytoplasmic part of the construct expressed on HEK293 cells
T7 chain: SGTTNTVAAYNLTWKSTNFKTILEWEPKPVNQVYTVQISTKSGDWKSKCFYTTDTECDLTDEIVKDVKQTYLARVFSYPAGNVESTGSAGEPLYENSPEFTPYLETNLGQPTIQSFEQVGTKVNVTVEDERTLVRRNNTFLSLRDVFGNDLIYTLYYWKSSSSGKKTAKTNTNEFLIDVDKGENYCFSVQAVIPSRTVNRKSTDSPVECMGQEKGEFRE

hTF_N171H_T197K = target: T8, hTF_N171H_T197K (human, UniProt P13726 33-251)
T8 construct: on HEK293 cells
T8 chain: T7 chain with N149K, N171H, T197K

Percent antibody binding to TF construct relative to hTF (rTF (rat TF) [1]): 0%
Percent antibody binding to TF construct relative to hTF (h1-107_r): 0%
Percent antibody binding to TF construct relative to hTF (h1-77_r): 0%
Percent antibody binding to TF construct relative to hTF (h159-219_r): 141%
Percent antibody binding to TF construct relative to hTF (hTF): 100%
Percent antibody binding to TF construct relative to hTF (rTF (rat TF) [2]): 0%
Percent antibody binding to TF construct relative to hTF (r141-194_h): 0%
Percent antibody binding to TF construct relative to hTF (hTF_K149N): 131%
Percent antibody binding to TF construct relative to hTF (hTF_N171H_T197K): 94%
B1: 39A (antibody, human IgG1, V domains shown)
VH: QVQLVQSGAEVKKPGSSVKVSCKASGGTFSSNAIGWVRQAPGQGLEWMGSIIPIIGFANYAQKFQGRVTITADESTSTAYMELSSLRSEDTAVYYCARDSGYYYGASSFGMDVWGQGTTVTVSS
VL: EIVMTQSPATLSVSPGERATLSCRASQSVSSNLAWYQQKPGQAPRLLIYGASTRATGIPARFSGSGSGTEFTLTISSLQSEDFAVYYCEQYNNLPLTFGGGTKVEIK
notes: Human IgG1
